Results on 17 molecules are retold here after patent US20210380703A1 (RIGEL PHARMACEUTICALS, published 2021).

For experiment [1], the target named is T1, human ACVR2A (human, UniProt P27037 20-135, limits assumed).
T1 construct: coated antigen of the initial ELISA; also called activin receptor, type II A
In words: ELISA. The method in brief:
(§1)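 ELISA measured binding of ACVR2A-specific monoclonal antibodies to human and mouse ACVR2A. Biotinylated goat anti-human kappa light chain served as positive control and human Fc as negative control.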
T1 sequence (P27037 20-135 limits assumed): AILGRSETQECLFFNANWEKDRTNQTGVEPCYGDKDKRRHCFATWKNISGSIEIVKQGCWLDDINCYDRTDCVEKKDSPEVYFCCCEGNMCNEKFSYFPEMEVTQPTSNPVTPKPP

Experiment [2] has as its target T2, mouse ACVR2A (mouse, UniProt P27038 20-135, limits assumed).
T2 construct: coated antigen of the initial ELISA
Description: ELISA. The essentials: as §1
In general terms: An ELISA detects its analyte on a solid surface through an enzyme-linked reagent.
T2 sequence (P27038 20-135 limits assumed): as the sequence (P27037 20-135 limits assumed) above, with K20R, V73I counted along it

Experiment [3] has as its target T3, biotinylated goat anti-human kappa light chain.
T3 construct: positive control of the ELISA
Description: ELISA, positive control. As for the experimental part: The binding of ACVR2A-specific monoclonal antibodies to human ACVR2A, mouse ACVR2A, biotinylated goat anti-human kappa light chain (positive control) and human Fc (negative control) were determined by ELISA.

Experiment [4] concerns the target human ACVR2A (human, UniProt P27037 20-135, limits assumed). In words: ELISA. The method in brief:
as §1
Target sequence in this assay (P27037 20-135 limits assumed): as the sequence (P27037 20-135 limits assumed) above

Experiment [5] has as its target mouse ACVR2A (mouse, UniProt P27038 20-135, limits assumed). Description: ELISA. The method in brief:
as §1
Target sequence in this assay (P27038 20-135 limits assumed): as the sequence (P27037 20-135 limits assumed) above, with K20R, V73I counted along it

The target of experiment [6] is T4, biotinylated goat anti-human kappa light chain.
T4 construct: Positive control of the ELISA
In words: ELISA; positive control. The essentials:
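mAb binding by ELISA; antigens: hu ACVR2A, mu ACVR2A; pos ctrl biotinylated goat anti-hu kappa LC; neg ctrl hu Fc.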
Note: test concentration or dose not given here.

B1: 375_E10 (antibody, V domains shown)
VH: EVQLLESGGGLVQPGGSLRLSCAASGFTFSSYSMNWVRQAPGKGLEWVSGINYNGGYTSYADSVKGRFTISRDNSKNTLYLQMNSLRAEDTAVYYCARGANWHDTALDYWGQGTLVTVSS
VL: DIQMTQSPSSLSASVGDRVTITCRASQSILSYLNWYQQKPGKAPKLVIYAATSRASGVPSRFSGSGSGTDFTLTISSLQPEDFATYYCQQSYDNPLTFGGGTKVEIK
notes: Group III
As for B1, the optical density with human ACVR2A [1] amounted to 3.69 OD; with mouse ACVR2A [2] it was 3.79 OD; in experiment [3] it was 3.29 OD.

B2: 375_D04 (antibody, V domains shown)
VH: EVQLLESGGGLVQPGGSLRLSCAASGFTFDDSSMHWVRQAPGKGLEWVSNINYNGGYTGYADSVKGRFTISRDNSKNTLYLQMNSLRAEDTAVYYCAKSANWHDTALDYWGQGTLVTVSS
VL: DIQMTQSPSSLSASVGDRVTITCRASQSILSYVNWYQQKPGKAPKLVIYAATSRASGVPSRFSGSGSGTDFTLTISSLQPEDFATYYCQQSYELPLTFGGGTKVEIK
notes: VH/VL only
As to B2, the optical density amounted to 3.69 OD with human ACVR2A [4], 3.7 OD with mouse ACVR2A [5] and 3.17 OD in experiment [6].

B3: 374_F02 (antibody, V domains shown)
VH: EVQLLESGGGLVQPGGSLRLSCAASGFTFDSYSMNWVRQAPGKGLEWVANINYNSGYTSYADSVKGRFTISRDNSKNTLYLQMNSLRAEDTAVYYCARSANWHDTALDYWGQGTLVTVSS
VL: DIQMTQSPSSLSASVGDRVTITCRASQSIVSYLNWYQQKPGKAPKLLIYAASSLQSGVPSRFSGSGSGTDFTLTISSLQPEDFATYYCQQSYELPLTFGGGTKVEIK
notes: VH/VL only
B3: the optical density in the experiment with human ACVR2A [4] was 3.56 OD; with mouse ACVR2A [5], 3.59 OD; in experiment [6] it was 3.16 OD.

B4: 376_F04 (antibody, V domains shown)
VH: EVQLLESGGGLVQPGGSLRLSCAASGFTFDSYSMNWVRQAPGKGLEWVSNINYNSGYTGYADSVKGRFTISRDNSKNTLYLQMNSLRAEDTAVYYCARSANWHDTALDYWGQGTLVTVSS
VL: not shown
notes: VH/VL only
B4: the optical density stood at 3.07 OD with human ACVR2A [4], 3.29 OD in the experiment with mouse ACVR2A [5] and 3.42 OD in experiment [6].

B5: 376_H10 (antibody, V domains shown)
VH: EVQLLESGGGLVQPGGSLRLSCAASGFTFDSYSMNWVRQAPGKGLEWVSGINYNSGYKSYADSVKGRFTISRDNSKNTLYLQMNSLRAEDTAVYYCARSANWHDTALDYWGQGTLVTVSS
VL: DIQMTQSPSSLSASVGDRVTITCRASQSILTYLNWYQQKPGKAPKLVIYAATSRHSGVPSRFSGSGSGTDFTLTISSLQPEDFATYYCQQSYDSPLTFGGGTKVEIK
notes: VH/VL only
Take B5: the figures for the optical density (with human ACVR2A [4]; with mouse ACVR2A [5]; in experiment [6]) were 3.28 OD, 3.29 OD and 3.54 OD, respectively.

B6: 367_D03 (antibody, V domains shown)
VH: EVQLLESGGGLVQPGGSLRLSCAASGFTFDSYSMNWVRQAPGKGLEWVSSINYNGGYTGYADSVKGRFTISRDNSKNTLYLQMNSLRAEDTAVYYCARGANWHDTHLDYWGQGTLVTVSS
VL: DIQMTQSPSSLSASVGDRVTITCRASQSIITYLNWYQQKPGKAPKLLIYAATSRASGVPSRFSGSGSGTDFTLTISSLQPEDFATYYCQQSYDTPLTFGGGTKVEIK
notes: Group III
Consider B6, for which the optical density with human ACVR2A [1] amounted to 2.59 OD; in the experiment with mouse ACVR2A [2] it was 2.45 OD; in experiment [3], 3.46 OD.

B7: 367_A10 (antibody, V domains shown)
VH: EVQLLESGGGLVQPGGSLRLSCAASGFTFSSYGMNWVRQAPGKGLEWVAGINYNSGYTSYADSVKGRFTISRDNSKNTLYLQMNSLRAEDTAVYYCARGANWHDTHLDYWGQGTLVTVSS
VL: DIQMTQSPSSLSASVGDRVTITCRASQSIITYVNWYQQKPGKAPKLLIYAATSLASGVPSRFSGSGSGTDFTLTISSLQPEDFATYYCQQSYDLPLTFGGGTKVEIK
notes: Group III
Turning to B7, the optical density with human ACVR2A [1] was determined as 1.89 OD; in the experiment with mouse ACVR2A [2], 2.16 OD; in experiment [3] it was 3.39 OD.

B8: 367_B12 (antibody, V domains shown)
VH: EVQLLESGGGLVQPGGSLRLSCAASGFTFSSYGMHWVRQAPGKGLEWVASINYNGGYKSYADSVKGRFTISRDNSKNTLYLQMNSLRAEDTAVYYCARGANWHDTHLDYWGQGTLVTVSS
VL: DIQMTQSPSSLSASVGDRVTITCRASQSILSYVNWYQQKPGKAPKLVIYAATSLASGVPSRFSGSGSGTDFTLTISSLQPEDFATYYCQQSYDTPLTFGGGTKVEIK
notes: Group III
As for B8, the optical density turned out to be 3.02 OD with human ACVR2A [1], 3.03 OD in the experiment with mouse ACVR2A [2] and 3.75 OD in experiment [3].

B9: 376_H09 (antibody, V domains shown)
VH: EVQLLESGGGLVQPGGSLRLSCAASGFTFSDYSMNWVRQAPGKGLEWVANINYNGGYTGYADSVKGRFTISRDNSKNTLYLQMNSLRAEDTAVYYCARSANWHDTALDYWGQGTLVTVSS
VL: DIQMTQSPSSLSASVGDRVTITCRASQSIITYLNWYQQKPGKAPKLVIYYVSNLPSGVPSRFSGSGSGTDFTLTISSLQPEDFATYYCQQSYDSPLTFGGGTKVEIK
notes: VH/VL only
Take B9: the optical density in the experiment with human ACVR2A [4] worked out at 3.32 OD; with mouse ACVR2A [5], 3.3 OD; in experiment [6] it was 3.46 OD.

B10: 376_G09 (antibody, V domains shown)
VH: EVQLLESGGGLVQPGGSLRLSCAASGFTFDSYSMNWVRQAPGKGLEWVSGINYNSGYKGYADSVKGRFTISRDNSKNTLYLQMNSLRAEDTAVYYCARSANWHDTALDYWGQGTLVTVSS
VL: DIQMTQSPSSLSASVGDRVTITCRASQSISYYLNWYQQKPGKAPKLLIYAVTSRASGVPSRFSGSGSGTDFTLTISSLQPEDFATYYCQQSYDNPLTFGGGTKVEIK
notes: VH/VL only
Take B10: the optical density in the experiment with human ACVR2A [4] was 3.68 OD; with mouse ACVR2A [5], 3.65 OD; in experiment [6], 3.45 OD.

B11: 367_B04 (antibody, V domains shown)
VH: EVQLLESGGGLVQPGGSLRLSCAASGFTFDSYSMNWVRQAPGKGLEWVSGINYNSGYKSYADSVKGRFTISRDNSKNTLYLQMNSLRAEDTAVYYCARGANWHDTHLDYWGQGTLVTVSS
VL: DIQMTQSPSSLSASVGDRVTITCRASQSILSYLNWYQQKPGKAPKLLIYAATSRASGVPSRFSGSGSGTDFTLTISSLQPEDFATYYCQQSYELPLTFGGGTKVEIK
notes: Group III
For B11, the optical density in the experiment with human ACVR2A [1] amounted to 2.66 OD; in the experiment with mouse ACVR2A [2] it was 3.1 OD; in experiment [3], 3.34 OD.

B12: 367_D06 (antibody, V domains shown)
VH: EVQLLESGGGLVQPGGSLRLSCAASGFTFDSYSMNWVRQAPGKGLEWVAGINYNGGYTSYADSVKGRFTISRDNSKNTLYLQMNSLRAEDTAVYYCARGANWHDTHLDYWGQGTLVTVSS
VL: DIQMTQSPSSLSASVGDRVTITCRASQSISTYLNWYQQKPGKAPKLVIYAATSLASGVPSRFSGSGSGTDFTLTISSLQPEDFATYYCQQSYNSPLTFGGGTKVEIK
notes: Group III
For B12, the figures for the optical density (with human ACVR2A [1]; in the experiment with mouse ACVR2A [2]; in experiment [3]) were 2.04 OD, 2.35 OD and 3.25 OD, respectively.

B13: 367_A12 (antibody, V domains shown)
VH: EVQLLESGGGLVQPGGSLRLSCAASGFTFSSYGMNWVRQAPGKGLEWVSGINYNSGYTSYADSVKGRFTISRDNSKNTLYLQMNSLRAEDTAVYYCARGANWHDTHLDYWGQGTLVTVSS
VL: DIQMTQSPSSLSASVGDRVTITCRASQSILSYLNWYQQKPGKAPKLLIYAATSLHSGVPSRFSGSGSGTDFTLTISSLQPEDFATYYCQQSYNNPLTFGGGTKVEIK
notes: Group III
Regarding B13, the optical density came to 2.44 OD with human ACVR2A [1], 2.42 OD in the experiment with mouse ACVR2A [2] and 3.65 OD in experiment [3].

B14: 376_G08 (antibody, V domains shown)
VH: EVQLLESGGGLVQPGGSLRLSCAASGFTFDSYGMNWVRQAPGKGLEWVANINYNGGYTSYADSVKGRFTISRDNSKNTLYLQMNSLRAEDTAVYYCARSANWHDTALDYWGQGTLVTVSS
VL: DIQMTQSPSSLSASVGDRVTITCRASQSILSYVNWYQQKPGKAPKLVIYAATSRASGVPSRFSGSGSGTDFTLTISSLQPEDFATYYCQQSYDTPLTFGGGTKVEIK
notes: VH/VL only
As to B14, the values for the optical density (with human ACVR2A [4]; with mouse ACVR2A [5]; in experiment [6]) were 3.69 OD, 3.64 OD and 3.47 OD, respectively.

B15: 367_C10 (antibody, V domains shown)
VH: EVQLLESGGGLVQPGGSLRLSCAASGFTFDSYSMNWVRQAPGKGLEWVSGINYNGGYTSYADSVKGRFTISRDNSKNTLYLQMNSLRAEDTAVYYCARGANWHDTALDYWGQGTLVTVSS
VL: DIQMTQSPSSLSASVGDRVTITCRASQSIVSYVNWYQQKPGKAPKLLIYAVTSRASGVPSRFSGSGSGTDFTLTISSLQPEDFATYYCQQSYETPLTFGGGTKVEIK
notes: Group III
Turning to B15, the figures for the optical density (with human ACVR2A [1]; in the experiment with mouse ACVR2A [2]; in experiment [3]) were 2.53 OD, 2.61 OD and 3.39 OD, respectively.

B16: 367_B01 (antibody, V domains shown)
VH: EVQLLESGGGLVQPGGSLRLSCAASGFTFSSYSMNWVRQAPGKGLEWVAGINYNGGYKGYADSVKGRFTISRDNSKNTLYLQMNSLRAEDTAVYYCARGANWHDTALDYWGQGTLVTVSS
VL: DIQMTQSPSSLSASVGDRVTITCRASQSISSYVNWYQQKPGKAPKLVIYAATSRASGVPSRFSGSGSGTDFTLTISSLQPEDFATYYCQQSYSTPLTFGGGTKVEIK
notes: Group III
Take B16: the results for the optical density (with human ACVR2A [1]; in the experiment with mouse ACVR2A [2]; in experiment [3]) were 2.84 OD, 2.91 OD and 3.67 OD, respectively.

B17: 367_C07 (antibody, V domains shown)
VH: EVQLLESGGGLVQPGGSLRLSCAASGFTFSSYSMNWVRQAPGKGLEWVSSINYNSGYTGYADSVKGRFTISRDNSKNTLYLQMNSLRAEDTAVYYCARGANWHDTHLDYWGQGTLVTVSS
VL: DIQMTQSPSSLSASVGDRVTITCRASQSILTYVNWYQQKPGKAPKLLIYAATSRASGVPSRFSGSGSGTDFTLTISSLQPEDFATYYCQQSYNLPLTFGGGTKVEIK
notes: Group III
With B17, the optical density with human ACVR2A [1] came out at 2.47 OD; with mouse ACVR2A [2], 2.52 OD; in experiment [3] it was 3.41 OD.
